Data taken from patent publication US7507538B2, “Human papilloma virus immunoreactive peptides” (priority 2001, dated 2009).
Entries after “also recorded” stand apart in the source; their conditions may differ.

Experiments:
[1] = tested on: autologous PBMC pulsed with HPV-16E6 or HPV-18E6 peptides; assay: 51Cr release lysis of peptide-pulsed autologous PBMC by lymphocytes stimulated in vitro with peptide; type: cell-based, human; conditions: lymphocytes of an HLA-A2 patient, peptide at 10 μm for 1-3 weeks, FIG. 2
Protocol: To determine if lymphocytes stimulated in vitro with either the HPV-18E6 peptide (SEQ ID NO. 1) or the HPV-16E6 peptide (SEQ ID NO. 10) would recognize and lyse peripheral blood mononuclear cells (PBMCs) pulsed with these peptides, the following experiment was performed. Lymphocytes isolated from a patient known to carry and express the HLA-A2 allele were stimulated in vitro (IVS) with either the HPV-18E6 peptide (SEQ ID NO. 1) or the HPV-16E6 peptide (SEQ ID NO. 10) at a 10 μm concentration for 1-3 weeks. Autologous PBMC target cells were radiolabeled with ^51Cr and pulsed with either the HPV-18E6 peptide (SEQ ID NO. 1) or the HPV-16E6 peptide (SEQ ID NO. 10). Each of the IVS lymphocyte populations were then mixed with each of the pulsed and labeled PBMC target cells and specific lysis was measured. Lymphocytes IVS with either the HPV-18E6 peptide (SEQ ID NO. 1) or the HPV-16E6 peptide (SEQ ID NO. 10) were able to lyse PBMCs which were pulsed with either the HPV-18E6 peptide (SEQ ID NO. 1) or the HPV-16E6 peptide (SEQ ID NO. 10) and had either the HPV-18E6 peptide (SEQ ID NO. 1) or the HPV-16E6 (SEQ ID NO. 10) peptide on their cell surface.
T cell cytotoxicity is measured by the standard ^51Cr-release assay. Briefly, target cells are radiolabeled with Na2 ^51CrO4. The patient's PBMC (which have been previously stimulated with an HPV peptide of Example 1 at 10 μm concentration for 1 to 3 weeks) are added to the labeled target cells in the presence or absence of the peptide. Cell lysis is determined by the specific release of ^51Cr (specific lysis). Target cells are autologous B-LCL or T2 cells pulsed with the peptide. If there is a detectable pre-immunization specific lysis, a 2.0 fold increase in the lytic units will be considered a positive response. If there is no detectable pre-immunization specific lysis, a post-immunization specific lysis of […] 10% above the controls will be considered a positive response.

HLA-A2 molecule = molecular target: T1, HLA-A2 molecule (Homo sapiens, UniProt P04439, D140Y/D185E/D98H/E176V/E277Q/G131W/G231S/I119V/I121R/I166T/I218V/L300P/L318F/N151K/N90K/P208A/P217A/Q86G/Q94H/R138H/R169H/T345S); assay: Binding of fluorescently labeled peptide to T2A2 cells; conditions: for affinity for HLA-A2 relative to the other peptides tested / binding to the HLA-A2 molecules on the surface of T2A2 cells: FIG. 1; for binding to the HLA-A2 molecules on the surface of T2A2 cells: fluorescently labeled peptide
T1 construct: endogenous in cells; host or cells: T2A2 cells

Sequence | specific lysis of autologous PBMC pulsed with either HPV-18E6 or HPV-16E6 peptide by lymphocytes stimulated in vitro with the peptide ([1]; listed as HPV-16E6 peptide) | specific lysis of autologous PBMC pulsed with either HPV-18E6 or HPV-16E6 peptide by lymphocytes stimulated in vitro with the peptide ([1]; listed as HPV-16E6 peptides) | fold higher affinity for the HLA-A2 molecule than the homologous HPV-16E6 peptide KLPQLCTEL (HLA-A2 molecule; T2A2 cells) | affinity for HLA-A2 relative to the other peptides tested (HLA-A2 molecule; T2A2 cells) | affinity for HLA-A2 relative to the other peptides tested (HLA-A2 molecule; T2A2 cells, listed as HPV-18E6 (13-21) peptide) | binding to the HLA-A2 molecules on the surface of T2A2 cells (HLA-A2 molecule) | binding to the HLA-A2 molecules on the surface of T2A2 cells (HLA-A2 molecule; listed as HPV-18E6 (13-21) peptide) | binding to the HLA-A2 molecules on the surface of T2A2 cells (HLA-A2 molecule; listed as HPV-18E6 peptide) | specific lysis of autologous PBMC pulsed with either HPV-18E6 or HPV-16E6 peptide by lymphocytes stimulated in vitro with the peptide ([1]; listed as HPV-18E6 peptide) | specific lysis of autologous PBMC pulsed with either HPV-18E6 or HPV-16E6 peptide by lymphocytes stimulated in vitro with the peptide ([1]; listed as HPV-18E6 peptides)
KLPQLCTEL [homologous peptide from the HPV-16E6 protein (amino acids 13-21), reference compound] | able to lyse | lyse | – | – | – | – | – | – | – | –
KLPDLCTEL | – | – | approximately 100 fold | higher affinity than did either the FMP peptide or the homologous peptide from the HPV-16E6 protein | higher than the homologous HPV-16E6 peptide | bound | high affinity | able to bind | able to lyse; also recorded: able to elicit an immune response | specifically lyse
